According to patent US8809529B2, “Imidazo[1,2-α]pyrazine derivatives” (Promega Corporation, priority 2010, dated 2014):
Where two headings read alike, the source gives them in different places.

Columns and labels:
[1] = type: physicochemical, E. coli; conditions: for ½ life: 50° C.
Method: Lysates of E. coli containing 15C1, 9B8, 9F6, 8A3 or IV and E. coli expressing hRL (SEQ ID NO: 30 and 31) were prepared from induced cultures as described previously. Lysate samples were diluted 1:1000 with a buffer containing 10 mM HEPES pH 7.5 with 0.1% gelatin. Diluted lysate (100 μL) samples, in replicate 96-well plates, were incubated at 50° C. At different time points, plates were placed at −70° C. (minus seventy degrees Celsius). Prior to measuring the luminescence as described previously, each plate was thawed at room temperature, i.e., 22° C., for 10 min. Samples (10 μL of each thawed sample) were assayed using native coelenterazine as a substrate. Luminescence was measured immediately after addition of assay buffer for each time point plate. The half-life of the protein, which indicated protein stability, was calculated from the luminescence data for each time point using methods known in the art.

[2] = test system: antioxidant response element (ARE); assay: ARE transcriptional reporter, reverse transfection, HEK293 cells; type: cell-based, human; conditions: 24 h, 100 ng DNA
CRE = CRE transcriptional reporter, bulk transfection, HEK293 cells; type: cell-based, human
Method: The transcriptional reporter containing […] and 9B8 opt-P was used in the bulk transfection of HeLa cells
HEK293, NIH3T3, or HeLa cells were plated to a single well of a 6-well tissue culture plate the day before transfection at a density of 4.5×10^5 cells/well in 3 mL complete medium (DMEM+10% FBS+1×NEAA+1× sodium pyruvate) for HEK293 cells, 3×10^5 cellsNvell in 3 mL complete medium (DMEM+10% fetal calf serum (FCS)+1×NEAA+1× sodium pyruvate) for NIH3T3 cells, or 9.9×10^5 cells/well in 3 mL complete medium (DMEM+10% FBS+1×NEAA) for HeLa cells. Cells were grown overnight at 37° C.
3,300 ng of reporter plasmid DNA in 155 4 OPTI-MEM® was mixed with 9.9 μL FUGENE® HD transfection reagent, vortexed briefly, and incubated at room temperature for 10 min. The CRE transcriptional reporters were used to transfect HEK293 and NIH3T3 cells. The HRE transcriptional reporters were used to transfect HeLa cells. The reporter mixture was added to cells and mixed by gentle rocking followed by incubation at 37° C. for 6 hrs (HEK293 and NIH3T3) or 3 hrs (HeLa). Cells were then trypsinized and resuspended in medium (DMEM+10% FBS+1×NEAA+1× sodium pyruvate for HEK293 cells, DMEM+10% FCS+1×NEAA+1× sodium pyruvate for NIH3T3 cells, or DMEM+10% FBS+1×NEAA for HeLa cells), followed by plating to the individual wells of a 96-well plate (20,000 cells/100 μL for HEK293, 10,000 cells/100 4 for NIH3T3, or […] for HeLa) and incubated at 37° C. overnight.
FSK (CRE stimulator) or 17-AAG (HRE stimulator; 17-Allylamino-demethoxy geldanamycin) in OPTI-MEM® was added to the cells (10 nM or 10 μM final concentration for FSK; 1 nM or 1 μM final concentration for 17-AAG) and incubated at 37° C. for 4 hrs (FSK) or 6 hrs (17-AAG). Plates were removed from the incubator and allowed to equilibrate to room temperature for 25 min. Cells were lysed with 100 μL lytic reagent as described above for the forward transfection. Luminescence was measured on a GLOMAX® Luminometer.

[3] = Brightness of purified OgLuc variant compared to firefly luciferase; type: biochemical
Method: The 9B8 OgLuc variant was overexpressed and purified as described in Example 33. Reactions between diluted enzyme and substrate were performed using the following 2× buffer/assay reagent: 100 mM MES pH 6.0, 1 mM CDTA, 150 mM KCl, 35 mM thiourea, 2 mM DTT, 0.25% TERGITOL® NP-9 (v/v), 0.025% MAZU® DF 204, 10 mg/mL […], and 20 μM PBI-3939. The final assay concentrations of purified enzyme and substrate were 0.5 pM and […], respectively. In parallel, reactions between diluted purified firefly luciferase (i.e., QUANTILUM® Recombinant Luciferase (Promega Corp.)) and luciferin were analyzed. The assay buffer/reagent for the firefly luciferase reaction was BRIGHT-GLO™, and the final assay concentrations were 0.5 pM enzyme and 500 μM luciferin. As the buffers/reagents for each reaction were known to provide “glow” kinetics, a 15 min time point was used to collect luminescence data.

[4] = test system: cAMP-response element (CRE); assay: cAMP transcriptional reporter in HEK293 cells (Example 36); conditions: for fold-induction: FSK 5 hrs
[5] = test system: cAMP response element (CRE); assay: CRE transcriptional reporter, forward transfection, HEK293 cells; type: cell-based, human; parameters: Response: scale not given here; conditions: for baseline: 10 nM FSK; for baseline / RLU (10 μM FSK): 3 h
Method: HEK293 cells were plated at 15,000 cells/well in six 96-well tissue culture plates. Cells were grown in 100 μL of DMEM+10% FBS+1× non-essential amino acids (NEAA) and incubated overnight at 37° C. The cells were transiently transfected with either 10 ng or 100 ng plasmid DNA/well of pGL4.29 9B8 opt, pGL4.29 9B8 opt-P, or pGL4.29. Plasmid DNA was mixed with 850 μL of OPTI-MEM® (Invitrogen) and 32.4 μL of FUGENE® HD transfection reagent (Promega Corp.) and incubated at room temperature for 10 min. Eight μL of the transfection/reporter DNA mixture was added to the appropriate wells (2 constructs/plate). Cells were incubated for 4 hrs at 37° C. The medium was replaced with OPTI-MEM®+0.5% dialyzed FBS+1×NEAA+1× sodium pyruvate+1× Penn-Strep and incubated overnight at 37° C.
A lytic reagent containing 100 mM MES pH 6.1, 1 mM CDTA, 150 mM KCl, 35 mM thiourea, 2 mM DTT, 0.25% TERGITOL® NP-9 (v/v), 0.025% MAZU® DF 204, and 20 μM PBI-3939 was added to the cells containing pGL4.29 9B8 opt or pGL4.29 9B8 opt-P and allowed to incubated for 10 min at room temperature (100 μL lytic reagent added to 100 μL cells). ONE-GLO™ assay reagent (Promega Corp.) was added to cells containing pGL4.29 and used according to the manufacturer's protocol (100 μL reagent added to 100 μL cells). Luminescence was measured on a GLOMAX® Luminometer.

| Molecule | ½ life [1] | ½ life ([1]; native coelenterazine as substrate) | % remaining at t = 4 hrs ([1]; 4 h) | RLU (20 μM sulphoraphane) [2] | RLU (20 μM tBHQ) [2] | baseline (CRE; HEK293, 10 nM FSK, 4 h) | RLU (10 mM FSK) (CRE; HEK293, 4 h) | Response (CRE; HEK293, FSK) | brightness relative to QUANTILUM Recombinant Luciferase with BRIGHT-GLO [3] | luminescence ([3]; 0.5 pM enzyme, 15 min, 9B8 opt with PBI-3939, QUANTILUM with BRIGHT-GLO) | induced luminescence higher than Luc2 transcriptional reporter [4] | induced luminescence higher than induced Renilla transcriptional reporter [4] | fold-induction ([4]; 30 ng of DNA) | fold-induction ([4]; 100 ng of DNA) | Response ([5]; 10 ng DNA for transfection) | baseline ([5]; 10 ng DNA for transfection) | RLU (10 μM FSK) ([5]; 10 ng DNA for transfection) | Response ([5]; 100 ng DNA for transfection) | baseline ([5]; 100 ng DNA for transfection) | RLU (10 μM FSK) ([5]; 100 ng DNA for transfection) |
| --- | --- | --- | --- | --- | --- | --- | --- | --- | --- | --- | --- | --- | --- | --- | --- | --- | --- | --- | --- | --- |
| 9B8: IV variant with Q18L, F68Y, L72Q, M75K; in Tables 12, 22, 23, 26, 27 “9B8” stands for 9B8 opt (protein) MVFTLEDFVGDWRQTAGYNLDQVLEQGGLSSLFQKLGVSVTPIQKIVLSGENGLKIDIHVIIPYEGLSGYQMGQIEKIFKVVYPVDDHHFKVILHYGTLVIDGVTPNMIDYFGRPYEGIAVFDGKKITVTGTLWNGNKIIDERLINPDGSLLFRVTINGVTGWRLCERILA | 5.8 h | 5.777 h | 61% | – | – | – | – | – | – | – | – | – | – | – | – | – | – | – | – | – |
| 9B8 opt: codon optimized version of the 9B8 variant (protein) MVFTLEDFVGDWRQTAGYNLDQVLEQGGLSSLFQKLGVSVTPIQKIVLSGENGLKIDIHVIIPYEGLSGYQMGQIEKIFKVVYPVDDHHFKVILHYGTLVIDGVTPNMIDYFGRPYEGIAVFDGKKITVTGTLWNGNKIIDERLINPDGSLLFRVTINGVTGWRLCERILA | – | – | – | 89,600,000 RLU | 120,000,000 RLU | 39,700,000 | 654,000,000 RLU | 16 | approximately 8 fold | 19,200 RLU | approximately 1.5 logs | approximately 2.5 logs | 360 | 109 | 67 | 192810 | 12,926,465 RLU | 34 | 3,078,418 | 104,687,723 RLU |
